Each substance was assayed against 10.17DT SOSIP (assay: SPR). Details: mutated DH270 UCA antibodies were injected at 100nM; 3000–4000 RUs of 10.17DT on the sensor chip; parent: est. 43; read off a plot.

In order of rising response:
1. DH270 UCA IgG (unmutated common ancestor of bnAb DH270.6) W101R  0 RU
2. DH270 UCA IgG (unmutated common ancestor of bnAb DH270.6) Y111N  0 RU
3. DH270 UCA IgG (unmutated common ancestor of bnAb DH270.6) W101G  3.5 RU
4. DH270 UCA IgG (unmutated common ancestor of bnAb DH270.6) I102D  6.5 RU
5. DH270 UCA IgG (unmutated common ancestor of bnAb DH270.6) W101Y  15 RU
6. DH270 UCA IgG (unmutated common ancestor of bnAb DH270.6) Y111H  25 RU
7. DH270 UCA IgG (unmutated common ancestor of bnAb DH270.6) Y111W  26 RU
8. DH270 UCA IgG (unmutated common ancestor of bnAb DH270.6) I102L  29 RU
9. DH270 UCA IgG (unmutated common ancestor of bnAb DH270.6) I102S  34 RU
10. DH270 UCA IgG (unmutated common ancestor of bnAb DH270.6) W101F  36 RU
11. DH270 UCA IgG (unmutated common ancestor of bnAb DH270.6) Y111F  38 RU
12. DH270 UCA IgG (unmutated common ancestor of bnAb DH270.6) I102N  43 RU
13. DH270 UCA IgG (unmutated common ancestor of bnAb DH270.6) I102V  54 RU
